Assays:
[1] = molecular target: T1, biotinylated LRRK2^RCKW (LRRK2 residues 1327 to 2527) (UniProt Q5S007 1327-2527, biotin (biotinylated; site not stated)); experiment: BLI; Octet Red96, 25 °C; biotinylated LRRK2^RCKW on streptavidin biosensors; DARPin E11 15 to 1000 nM; 50 mM Hepes pH 8.0, 150 mM NaCl, 10 mM MgCl2, 5% glycerol, 0.1% BSA, 0.05% Tween 20, 500 μM GDP; Req fitted to a Langmuir model; details: both partners purified
T1 construct: Leucine rich repeat kinase 2 (LRRK2), C-terminal catalytic half with ROC GTPase, COR-A, COR-B, kinase and WD40 domains, residues 1327 to 2527; also called biotinylated LRRK2^RCKW protein; source: Sf9 (baculovirus, medium with 0.1 mM biotin), purified (Ni-NTA, TEV, Ni-NTA, S200 gel filtration); not shown: His6, N-terminal, cleaved
T1 sequence (looked up): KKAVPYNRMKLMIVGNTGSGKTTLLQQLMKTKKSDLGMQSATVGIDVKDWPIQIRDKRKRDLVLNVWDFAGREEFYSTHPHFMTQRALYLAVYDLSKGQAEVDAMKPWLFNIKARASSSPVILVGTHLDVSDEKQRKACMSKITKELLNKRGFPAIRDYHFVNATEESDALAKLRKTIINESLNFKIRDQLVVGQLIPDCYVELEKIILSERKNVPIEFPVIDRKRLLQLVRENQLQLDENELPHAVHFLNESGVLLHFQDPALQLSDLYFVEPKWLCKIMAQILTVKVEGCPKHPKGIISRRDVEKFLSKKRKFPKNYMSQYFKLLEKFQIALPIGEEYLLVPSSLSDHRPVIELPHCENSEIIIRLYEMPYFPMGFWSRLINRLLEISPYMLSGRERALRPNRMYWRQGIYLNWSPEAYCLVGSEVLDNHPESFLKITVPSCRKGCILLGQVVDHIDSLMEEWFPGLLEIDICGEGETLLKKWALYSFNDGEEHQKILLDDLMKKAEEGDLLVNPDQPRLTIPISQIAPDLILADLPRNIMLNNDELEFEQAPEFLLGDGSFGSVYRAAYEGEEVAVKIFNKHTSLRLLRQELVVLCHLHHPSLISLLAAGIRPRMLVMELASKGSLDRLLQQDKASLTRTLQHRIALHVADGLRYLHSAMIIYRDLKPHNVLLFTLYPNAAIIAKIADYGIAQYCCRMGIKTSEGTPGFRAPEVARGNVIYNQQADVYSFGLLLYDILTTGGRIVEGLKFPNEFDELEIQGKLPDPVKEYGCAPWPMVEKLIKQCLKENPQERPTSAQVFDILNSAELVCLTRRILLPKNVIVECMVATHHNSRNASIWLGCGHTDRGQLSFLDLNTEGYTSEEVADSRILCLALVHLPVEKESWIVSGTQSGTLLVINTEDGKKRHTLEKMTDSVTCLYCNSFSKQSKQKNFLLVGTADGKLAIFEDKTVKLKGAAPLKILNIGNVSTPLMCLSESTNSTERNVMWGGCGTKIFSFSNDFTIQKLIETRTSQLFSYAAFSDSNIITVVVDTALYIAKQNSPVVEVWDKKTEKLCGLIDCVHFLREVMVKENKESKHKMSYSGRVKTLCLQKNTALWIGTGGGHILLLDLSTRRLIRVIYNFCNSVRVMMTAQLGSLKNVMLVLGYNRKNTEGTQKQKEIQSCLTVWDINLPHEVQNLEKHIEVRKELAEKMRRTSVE

[2] = molecular target: T1, biotinylated LRRK2^RCKW (LRRK2 residues …); experiment: SPR; Biacore T200; 850 RU biotinylated LRRK2^RCKW on a streptavidin-coated Series S CM5 chip; DARPin E11 in the mobile phase, 30 μl/min; 20 mM Hepes pH 7.4, 150 mM NaCl, 0.5 mM TCEP, 20 μM GDP, 2.5 mM MgCl2; plateau values fitted to a Langmuir model; details: both partners purified
[3] = molecular target: LRRK2^RCKW (purified for cryo-EM from His6-Z-TEV-LRRK2^RCKW); experiment: mass photometry; Refeyn Two MP; LRRK2^RCKW alone or with a 2.5-fold excess of DARPin E11; 20 mM Hepes pH 7.4, 150 mM NaCl, 2.5 mM MgCl2, 5% glycerol, 20 μM GDP, 0.5 mM TCEP

B1: DARPin E11 (designed binder)
chain: MRGSHHHHHHHHGSDLGKKLLEAARAGQDDEVRILMANGADVNATDEAGVTPLHLAADSGHLEIVEVLLKTGADVNAWDHYGFTPLHLAAHVGHLEIVEVLLKAGADVNAQDHAGWTPLHLAALYGHLEIVEVLLKHGADVNAQDMWGETPFDLAIDNGNEDIAEVLQKAAKLNDYKDDDDK
notes: Designed ankyrin-repeat protein selected by ribosome display against LRRK2^RCKW; also called 008-807-2362-H9; 8xHis-DARPin E11-3xFLAG; source: E. coli Rosetta, purified (Ni-NTA, SEC)
Kd [1]: 11 nM
Kd [2]: 70 nM
koff [2]: ~0.005 s⁻¹
stoichiometry N [3]: 1
